Experimental data reported in the supplement of paper PMC9170038.

Tested on: MS2 coat protein
Experiment: apparent KD of MS2 coat protein; designed switch direction (-1 OFF switch, 1 ON switch): -1; higher = weaker reporter binding
In short: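 An oligonucleotide input, 200 uM small-molecule ligand, or no input was present during titration of SNAP-549-labelled MS2 coat protein, which was doubled from 0.7 or 1.5 nM to 3 µM. Designed RNA switches had been transcribed on Illumina chips by stalled E. coli RNA polymerase. Apparent KD per design is the median over clusters of curves fitted to normalised cluster fluorescence.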

[1] = Eterna round: R95, input ligand: FMN 200 uM
[2] = Eterna round: R95, input ligand: microRNA oligo, concentration not stated
[3] = Eterna round: R95, input ligand: none
[4] = input ligand: microRNA oligo, concentration not stated

Row | Sequence | apparent KD of MS2 coat protein (input ligand: FMN 200 uM) [nM] | apparent KD of MS2 coat protein (input ligand: none) [nM] | apparent KD of MS2 coat protein [1] [nM] | apparent KD of MS2 coat protein [2] [nM] | apparent KD of MS2 coat protein [3] [nM] | apparent KD of MS2 coat protein [4] [nM]
1 | GGUGAGCUAGGAUAUGCUUUGGGCUCGCAUUCCUUCGAUAAACUUGAGGAUCACCCAAGUAGAAGGAGCUUGCC [salish99_ex2_r4_032] (Eterna round: R97, puzzle: Exclusion 2) | 23.3 | 15.8 |  |  |  | 
2 | CCGACGUGAGGAUAUCCAUCUGGAUCAGACUAGAUCCUGAUGGAGAAGGCACAUGAGGAUCACCCAUGUUACGG [Eli 4x 4.41] (Eterna round: R97, puzzle: Exclusion 4) | 909 | 524 |  |  |  | 
3 | AUGGUGUCAGGAUAUCUCAAAGCACAGAAUGAGCGGCUACGGGAGAAGGGACAUGAGGAUCACCCAUGUACUCU [EX4 B.29] (Eterna round: R97, puzzle: Exclusion 4) | 19.9 | 18.6 |  |  |  | 
4 | AAUUUACAUGAGGAUCACCCAUGUGAGGAUAUAUGUUUUAAUUUUUUUUUUUUUUUUCAUAGAAGGCGCGUGAU [JR_Exc1_Sub047] (Eterna round: R97, puzzle: Exclusion 1) | 49.4 | 43.5 |  |  |  | 
5 | CUUAUGUCAGGAUAUUAGUAGUAAAUGAAUAAAAUUAUUACUGAGAAGGGACAUGAGGAUCACCCAUGUUCCUC [Mat - Exclusion 4 - Eli Mod - D4] (Eterna round: R97, puzzle: Exclusion 4) | 149 | 19.6 |  |  |  | 
6 | CGUACUAAAGUCAGGAUAUUGUCUCGGAUACGAAACAAGAAGGGACAUGAGGAUCACCCAUGUAGAUAGUACGA [Malc #30 mod 5] (puzzle: Brourd's mod of Exclusion 4) |  |  | 16.9 | 23.4 | 26.6 | 
7 | GAGAAGGUAGGAUAUACGAAGAAAGAGGGUAGGAAGAAGACACAUGAGGAUCACCCAUGUAGAAGGACCAAGAG [Mat - Exclusion 2 - Mod of my Tesla design - D48] (puzzle: Exclusion 2) |  |  | 27.1 | 13.9 | 14.1 | 
8 | AGAUGCUCAAGUCGACAUGAGGAUCACCCAUGUACAGUUAAUGAGGAUAUCUGAGACAAAUAGUAGGAGAAGGCGUGAACAUGA [Ex NG3 #10] (Eterna round: R96, puzzle: Exclusion NG 3) | 55.2 | 57.6 |  |  |  | 26.5
9 | UUGAGUCGGAAGGAUAUGCGAGCCGCCGGGUCAGCAGAAGGUCCGACAUGAGGAUCACCCAUGUUGGGCGAGGA [EX6 B.10] (Eterna round: R97, puzzle: Exclusion 6) | 351 | 25.2 |  |  |  | 
10 | AAGAUGAGACAGGAUAUCCACAAAAUCUUGUCAGGAGAAGGGUCUACAUGAGGAUCACCCAUGUGAUUCUUGAA [Inriinvele] (puzzle: Exclusion 6) |  |  | 19.1 | 14.6 | 18.1 | 
11 | UUAUUUAGGUAGGAUAUCGAUAUUAAUUAUUAUCGAGAAGGGUCUACAUGAGGAUCACCCAUGUUAGCAUGUUU [LRO-Excl6-09-Rocketman] (Eterna round: R97, puzzle: Exclusion 6) | 23.3 | 29.3 |  |  |  | 
12 | CAGGUCCGAGGAUAUAUUAUGUGAAACAUGAGGAUCACCCAUGUUAUAUGAUGGAUGUAAAUAGAAGGCGGACUUG [Mat - Exclusion 5 - JL mod - D64] (puzzle: Exclusion 5) |  |  | 23.9 | 29.3 | 35.3 | 
13 | GCCGGAUUUGUGAGGAUAUGCCUAUGGAUACAUAGGCAGAAGGCACAUGAGGAUCACCCAUGUACCUCACCGGC [JL-BMX4-4.23 Eli mod] (Eterna round: R97, puzzle: Brourd's mod of Exclusion 4) | 141 | 21.4 |  |  |  | 
14 | UUAGCGUAAGUAAGGAUAUGCUGGUCGAAAGACCAGCAGAAGGUACAUGAGGAUCACCCAUGUUGAUUCGUUGC [Mod of JL 13 - Jieux - Brourd's mod of Exclusion 4] (Eterna round: R97, puzzle: Brourd's mod of Exclusion 4) | 284 | 39.7 |  |  |  | 
15 | UUAAAUCAUGUAGGAUAUGCGUGGCGAAGCUAUGCAGAAGGACAUGAGGAUCACCCAUGUUCUGCGGUCUGCGUACAGAUCGCA [JL ENG1 1.05] (Eterna round: R96, puzzle: Exclusion NG 1) | 502 | 42.7 |  |  |  | 29.1
16 | CUCUUGUUAGGAUAUCAAACCGGCAGCGGAGCCGCCGGAAGUGAGAAGGGACAUGAGGAUCACCCAUGUAAGAA [Quatdior] (puzzle: Exclusion 4) |  |  |  | 58.9 |  | 
17 | AAUUCUAGGGUCAGACGCACAAGCUUUUUGCUCGUUUUAACAUGAGGAUCACCCAUGUCUAGUGGAUCUGAUCGGGC [JL ViennaUCT Isreen mod 8] (puzzle: Sensor v3, turn-off variant 2) |  |  | 24.8 | 72.9 | 22.4 | 
18 | ACAUGUCCUGAGGAUAUCAAAGUCCUCCCGACAUGAGAAGGCAGGACAUGAGGAUCACCCAUGUGGAGCAGGGA [Aarorbeti] (Eterna round: R97, puzzle: Exclusion 6) | 420 | 111 |  |  |  | 
19 | GGAUCGAAUGUGAGGAUAUACCACUGGAUACAGUGGUAGAAGGCACAUGAGGAUCACCCAUGUCUCUACGAUCC [Fiskers BMX 4 - 43] (puzzle: Brourd's mod of Exclusion 4) |  |  |  | 21 |  | 
20 | CGCAAGUUAGGAUAUGACGCGAAUUUCCGGCUUUGGCCGGAUCAGAAGGAACUUGAGGAUCACCCAAGUGGCCG [Adia] (Eterna round: R97, puzzle: Exclusion 4) | 20.1 | 15.9 |  |  |  | 
21 | GUAGAGUCAGGAUAUACGAGAUCGAAAGAUCUUUGAUCCUAACAUGAGGAUCACCCAUGUAGAAGGGACUCUAC [Omei mod 3 to Eli's favorate candidate (ch.parushev)] (Eterna round: R97, puzzle: Exclusion 2) | 698 | 58 |  |  |  | 
22 | GGCCCUAAGGUCAGAUCCACAAGCUUUUUGCUCGUUUUAACAUGAGGAUCACCCAUGUCUAGUGGAUUUGAUCCUCU [Sensor v3, turn-off variant 2 (MOD of Indiso v.8)] (puzzle: Sensor v3, turn-off variant 2) |  |  | 27.9 | 9.69 | 33.5 | 
23 | GUCAGACGAGGAUAUAGAUUUAGAUACAUGAGGAUCACCCAUGUAUAGAUGUAUUUAGAUUUAGAAGGCGUCUGAC [E5/13-A3] (Eterna round: R97, puzzle: Exclusion 5) | 231 | 201 |  |  |  | 
24 | GAAAAGCUAGGAUAUACGAAAAAAAAGGGUAGAAAAAAAACACAUGAGGAUCACCCAUGUAGAAGGAGCAAAAG [salish99_ex2_r3_093] (puzzle: Exclusion 2) |  |  | 102 | 51 | 48.2 | 
25 | UAUUAACAAGUAAGAUCCCACAUGAGGAUCACCCAUGUGCUCGUCUUAUAAGGUACUGUGACGAAAGUCACGGUACC [Dup of Eli's R95 Sensor 3, v1 - 87] (Eterna round: R97, puzzle: Sensor, turn-off variant 1) | 16.3 | 16.5 |  |  |  | 
